Measured values reported in doi:10.1101/2021.01.25.428185 (bioRxiv, 2021).

Assays:
[1] = target: T1, GST-Rab11A(CA), mouse Rab11A(Q70L), GTPγS-loaded (mouse, UniProt P62492 1-216, Q70L); experiment: pull-down
T1 sequence (looked up): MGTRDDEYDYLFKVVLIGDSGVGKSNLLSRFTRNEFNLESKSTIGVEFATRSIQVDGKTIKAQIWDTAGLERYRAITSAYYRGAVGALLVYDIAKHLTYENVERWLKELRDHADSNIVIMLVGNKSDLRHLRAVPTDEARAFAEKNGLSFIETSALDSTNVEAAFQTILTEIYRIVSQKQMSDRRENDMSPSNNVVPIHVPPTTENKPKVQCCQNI

[2] = target: T2, GST-Rab11A(CN), mouse Rab11A(N124I), GDP-loaded (mouse, UniProt P62492 1-216, N124I); experiment: pull-down
T2 sequence (looked up): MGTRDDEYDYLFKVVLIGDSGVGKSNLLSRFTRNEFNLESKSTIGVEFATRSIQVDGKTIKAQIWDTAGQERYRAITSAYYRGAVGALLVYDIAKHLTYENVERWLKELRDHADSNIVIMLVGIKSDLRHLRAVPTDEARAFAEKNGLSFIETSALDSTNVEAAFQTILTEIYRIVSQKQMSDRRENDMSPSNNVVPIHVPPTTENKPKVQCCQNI

B1: T7-tagged Rab11-FIP2-C (domain or fragment, mouse, UniProt G3XA57 389-512, looked up)
chain: PSAFSENRQDYFEYESTNPFTAKFRASTIMPSSSFHVNPTSSEDLRKIPDNNPFDATAGYRSLTYEEVLQELVKHKELLRRKDTHIRELEDYIDNLLVRVMEETPSILRVPYEPSRKAGKFTNS
binding result [1]: binds | binding result [2]: binds
